Measurements published in article PMC4300553 (2015).
Ends that are not written are not given here. fluorescein = fluorescein label on the N-terminus of the peptide

Experiments:
Assay in all cases: fluorescence anisotropy
[1] = target: T1, Src-optimal substrate peptide Rs1 (synthetic construct)
T1 chain: fluorescein-AEEEIYGEFAKKK

[2] = target: T2, Src-optimal substrate peptide Rs1 (synthetic construct)
T2 chain: fluorescein-AEEEIYGEFAKKK

[3] = target: T3, Src-optimal substrate peptide Rs1 (synthetic construct)
T3 chain: fluorescein-AEEEIYGEFAKKK

- Kd [1]: 16 µM
- Kd [2]: 17 µM
- Kd [3]: 37 µM
B1: Src kinase domain 251-533 (protein)
chain: QTQGLAKDAWEIPRESLRLEVKLGQGCFGEVWMGTWNGTTRVAIKTLKPGTMSPEAFLQEAQVMKKLRHEKLVQLYAVVSEEPIYIVTEYMSKGSLLDFLKGEMGKYLRLPQLVDMAAQIASGMAYVERMNYVHRDLRAANILVGENLVCKVADFGLARLIEDNEYTARQGAKFPIKWTAPEAALYGRFTIKSDVWSFGILLTELTTKGRVPYPGMVNREVLDQVERGYRMPCPPECPESLHDLMCQCWRKDPEERPTFEYLQAFLEDYFTSTEPQYQPGENL
